Assay results as given in patent US20260069536A1, “COMPOSITIONS, SYSTEMS, AND METHODS FOR DELIVERY OF THERAPEUTICS” (THE JOHNS HOPKINS UNIVERSITY, priority 2022, published 2026).
Square brackets hold non-standard residues; d marks the D form. Ends that are not written are not given here. Nva = CCC[C@H](N)C(=O)O

What was measured:
[1] = tested on: full MHC mismatch (C57BL/6 to BALB/c) mouse heart transplantation model; experiment: Mouse heart transplantation model, systemic Tofa with CTLA4-Ig; type: in vivo
[2] = tested on: dendritic cells; experiment: Maturation of dendritic cells under Tofa; type: cell-based
[3] = tested on: Treg; experiment: Suppressive activity of Treg under Tofa; type: cell-based
[4] = tested on: mouse heart transplant model; experiment: Mouse heart transplant model, localized Tofa hydrogel with CTLA4-Ig; type: in vivo; conditions: localized release around the transplanted heart, single administration
Description: FIG. 3A is a schematic of localized delivery of Tofacitinib (Tofa) microcrystals from a hydrogel (MTH) implanted in mice receiving heterotopic heart transplant. FIG. 3B is survival curves of C57Bl/6 mice receiving BALB/c heart transplants under the indicated treatments.
A peptide hydrogel (MAX8) that self-assembles at physiological conditions and encapsulated crystalline Tofa (cJAKi-Hydro) was used to assess that the localized release of a JAKi (Tofa) around the transplanted heart would have synergism with CTLA4-Ig as systemic Tofa administration (FIG. 3A).

[5] = Release of Ani2-NLCs from peptide gels in the absence of enzyme; type: physicochemical
Experimental: (§1) Preliminary experiments were conducted on the proteolytic stability of the peptides and the impact on the release of the encapsulated NLCs. To investigate protease-mediated release, comparative release rates of Ani2-NLCs were studied with respect to nVET2 and IVET1 gels in trypsin-rich and MMP12-rich environments. Ani2-NLCs are retained within the gels over extended periods of time due to their negative zeta potential that allows them to bind to the positively charged gel network.
(§2) Upon trypsinization, both IVET1 and nVET2 gels show faster release rates of Ani2-NLCs than those observed in the absence of the protease. […] These relative release trends of IVET1 and nVET2 gels are somewhat consistent with the degradation of the individual peptides by trypsin and MMP12. Trypsin hydrolyzes proteins at the carboxyl side of lysine and arginine amino acid residues and as such, the peptides IVET1 and nVET2 contain six cleavable sites with respect to trypsin. On the other hand, MMP12 recognizes a single cleavage site (PLG↓VR) within each of the peptide sequences. Thus, the observed rate of release of the NLCs is proportional to the number of protease-specific cleavage sites within the peptide sequence
At the end of 10 days, less than 20% of Ani2-NLCs were released in the absence of enzyme. Thus, two distinct release regimes of tofacitinib are attainable with simultaneous incorporation of the drug as microcrystalline deposits and as Tofa-NLCs.

[6] = Release of microcrystalline tofacitinib from peptide gels (UV-Vis); type: physicochemical; conditions: 32 mM microcrystalline deposits, after 10 days
Experimental: The release rates of microcrystalline tofacitinib from select peptide gels (MAX8 and HLT2) was determined as in Majumder, P., et al., Small 2020, 16, 2002791, incorporated herein by reference (FIG. 18A). As such, the release rates were established for the enzyme cleavable peptides (nVET1 and IVET1) at two different drug loads—16 mM and 32 mM. The release of tofacitinib was quantified using UV-Vis spectroscopy (λ=285 nm). […] The release profile is thus dependent on the final concentration of drug loaded and consistent with crystal dissolution being rate-determining.

[7] = tested on: trypsin; experiment: Protease-mediated release of NLC from peptide gels, trypsin; type: physicochemical; conditions: first 24 hours; for increase in release rate upon trypsinization: relative to absence of protease; for Ani2-NLCs released: with trypsin
Experimental: FIGS. 10A and 10B show protease responsive LNp release. […] FIG. 10B is a graph of the release profiles of Ani2-NLC from Peptide-4 gels in response to trypsin.
IVET2—SEQ ID NO: 7; IVET1—SEQ ID NO: 8; nVET2—SEQ ID NO: 9; nVET1—SEQ ID NO: 10.
as §1, §2

[8] = target: T1, MMP12 (Homo sapiens, UniProt P39900); experiment: Protease-mediated release of NLC from peptide gels, MMP12; type: physicochemical; conditions: MMP12 treated gels
T1 sequence (P39900 106-470, species assumed): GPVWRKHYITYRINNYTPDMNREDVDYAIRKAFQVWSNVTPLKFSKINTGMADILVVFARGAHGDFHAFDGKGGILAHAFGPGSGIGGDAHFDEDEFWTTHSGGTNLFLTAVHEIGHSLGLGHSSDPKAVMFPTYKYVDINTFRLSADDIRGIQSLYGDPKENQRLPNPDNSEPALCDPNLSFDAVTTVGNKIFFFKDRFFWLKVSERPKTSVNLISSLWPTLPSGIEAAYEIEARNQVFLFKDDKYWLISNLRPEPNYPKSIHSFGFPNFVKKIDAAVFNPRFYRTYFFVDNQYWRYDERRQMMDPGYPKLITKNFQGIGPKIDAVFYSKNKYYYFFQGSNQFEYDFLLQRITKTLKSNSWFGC
Experimental: as §1, §2

[9] = target: T1, MMP12; experiment: Rheology of MMP12-treated peptide gels; type: physicochemical; conditions: 150 ul, 1 wt % gels, 37° C., MMP12, 1×HBS pH 7.4, 12 days
Experimental: To provide further insight into the mechanistic effects of the gel release rates described above, the rheological properties of the MMP12-treated peptide gels were investigated. For this study, pre-formed IVET1 gels (150 ul, 1 wt %) were incubated at 37° C. with MMP12 (1×HBS, pH 7.4) and the storage modulus at 6.3 rad/s (obtained from frequency sweep measurements) was plotted at different time points for each gel. […] Despite peptide cleavage, the gels remained intact due to the stable cross-linked fiber network supported by the inter-hairpin hydrophobic contacts of the peptides upon self-assembly.

[10] = Gel stiffness (storage modulus G′) after NLC encapsulation; type: physicochemical; conditions: following encapsulation of neutral or negatively-charged NLCs
Description: FIGS. 6A-6C show LNp encapsulation in a hydrogel. FIG. 6A is a graph of the comparative storage moduli (G′) of MAX8 gels with and without Neut-NLCs and Ani2-NLCs. FIG. 6B is a graph of the cumulative release profiles of Neut-NLC and Ani2-NLC from MAX8 gels. FIG. 6C is an image of LNp retention by MAX8 gels. A lipophilic dye (pink) was encapsulated within the NLCs to quantify release after 5 days.
To improve particle retention within the gel, the nanoparticles were modified to achieve a slightly negative surface charge (the hydrogel network is positively charged) by adding a small percentage of anionic surfactant (Glycolic Acid Ethoxylate Oleyl Ether) together with the Gelucire 44/14. Two different ratios of these surfactants were used until similarly sized nanoparticles were achieved.

[11] = Hydrogel toxicity after SQ injection in skin flap; conditions: SQ injection after flap raise, visual monitoring
Experimental: To this end, the condition of transplants was replicated by surgically separating the skin of the prospective area of injection (flap raise) followed by suturing the edges. After completion of the surgical procedure, empty hydrogel or Tofa containing hydrogel was injected SQ and the area monitored visually for any macroscopic sign of toxicity.

[12] = absence of enzyme, end of 10 days
[13] = absence of trypsin (control gel), first 24 hours

Compound	Ani2-NLCs released [5, 12]	drug release [6]	increase in release rate upon trypsinization [7] [fold]	Ani2-NLCs released [7] [%]	release rate of Ani2-NLCs [8]	Ani2-NLCs released [5, 13] [%]	further results
C[C@@H]1CCN(C(=O)CC#N)C[C@@H]1N(C)c1ncnc2[nH]ccc12 [Tofa, 3-((3R,4R)-4-methyl-3-(methyl(7H-pyrrolo[2,3-d]pyrimidin-4-yl)amino)piperidin-1-yl)-3-oxopropanenitrile]							differentiation of TH1 effector T cells ([1]; Tofa+CTLA4-Ig): inhibition of the differentiation of TH1 effector T cells; regulatory T cells (Treg) ([1]; Tofa+CTLA4-Ig): accumulation of a high frequency of regulatory T cells; graft survival with ischemic hearts ([1]; Tofa+CTLA4-Ig, hearts kept ischemic for 4h before transplantation): improvement in survival was unaffected; graft survival ([1]; combination with CTLA4-Ig, Tofa POD-1 to POD6, twice daily via oral gavage): promoted long-term graft survival; up-regulation of MHC-II molecules ([2]; dendritic cells): did not prevent the up-regulation of MHC-II molecules; maturation of dendritic cells ([2]; upregulation of costimulatory molecules and secretion of pro-inflammatory cytokines): very effective at preventing the maturation of dendritic cells; suppressive activity of Treg [3]: only minimally affected the suppressive activity of Treg; graft survival [4]: as effective at synergizing with systemic CTLA4-Ig as 16 oral gavage administrations
(nV)K(nV)E(nV)KVKV^DPPLGVRTK(nV)K(nV) ([Nva]K[Nva]E[Nva]KVKVPPLGVRTK[Nva]K[Nva]; also: P10 written ^DP (meaning not given here)) [nVET1]	less than 20%	less than 60%					
(nV)KTE(nV)KVKV^DPPLGVRTK(nV)K(nV) ([Nva]KTE[Nva]KVKVPPLGVRTK[Nva]K[Nva]; also: P10 written ^DP (meaning not given here)) [nVET2]			3	30	intermediate between their respective trypsin-rich and protease-free gel environments	10	
IKVEIKVKV^DPPLGVRTKIKV (IKVEIKVKVPPLGVRTKIKV; also: P10 written ^DP (meaning not given here)) [IVET1]	less than 20%	less than 60%	~12	17.4	intermediate between their respective trypsin-rich and protease-free gel environments	1.5	storage modulus at 6.3 rad/s [9]: relatively stable storage modulus
VKVKVKVKV^DPPTKVEVKVKV (VKVKVKVKVPPTKVEVKVKV; not fully specified (residue 10)) [MAX8]							gel stiffness [10]: stiffness is maintained; macroscopic sign of toxicity [11]: absence of any evidence of toxicity
